Measurements published in US20140004122A1, “METHODS FOR TREATING OR PREVENTING CHOLESTEROL RELATED DISORDERS” (AMGEN INC., priority 2011, published 2014).

B1: 3B6: anti-PCSK9 antibody; light/heavy variable region SEQ ID NO 46/60 (antibody, listed as Homo sapiens, V domains shown)
VH: QVQLVQSGAEVKKPGASVKVSCKASGYTFTSYGISWVRQAPGQGLEWMGWISTYNGNTNYAQKVQGRVTMTTDTSTSTAYMELRSLRSDDTAVYYCARGYTRDYWGQGTLVTVSS
VL: QPVLTQPLFASASLGASVTLTCTLSSGYSSYEVDWYQQRPGKGPRFVMRVDTGGIVGSKGEGIPDRFSVLGSGLNRYLTIKNIQEEDESDYHCGADHGSGTNFVVVFGGGTKLTVL
B2: 25A7: anti-PCSK9 antibody; light/heavy variable region SEQ ID NO 15/58; 25A7.3 referred to as 25A7 (antibody, listed as Homo sapiens, V domains shown)
VH: QVQLVQSGAEVKKPGASVKVSCKASGYTFPSYGISWVRQAPGQGLEWMGWISAYNGNTNYAEKLQGRVTMTTDTSTSTAYMEVRSLRSDDTAVFYCARGYVMDVWGQGTTVTVSS
VL: QSALTQPASVSGSPGQSITISCTGTSSDVGRYNSVSWYQHHPGKAPKVMIYEVSNRPSGVSTRFSGSKSGNTASLTISGLQAEDEADYYCSSYTSSSVVFGGGTKLTVL
B3: 13H1: anti-PCSK9 antibody; light/heavy variable region SEQ ID NO 28/91 (antibody, listed as Homo sapiens, V domains shown)
VH: QVQLQQSGPGLVKPSQTLSLTCAISGDSVSSNSAAWNWIRQSPSRGLEWLGRTYYRSKWYKNYSVSVKSRITINPDTSKNQFSLQLNSVTPGDTAVYYCARGGPTAAFDYWGQGTLVTVSS
VL: LSALTQPASVSGSPGQSITISCTGTSSDVGNYNLVSWYQQYSGKAPKLMIYEVSKRPSGVSNRFSGSKSGNTASLTISGLQAEDEADYYCCSYAGSSTLVFGGGTKLTVL
B4: 27B2: anti-PCSK9 antibody; light/heavy variable region SEQ ID NO 13/87 (antibody, listed as Homo sapiens, V domains shown)
VH: QVQLQESGPGLVKPSQTLSLTCTVSGGSISSGGYYWSWIRQHPGKGLEWIGYIYNSGSTYYNPSLKSRVTISVDTSKNQFSLKLSSVTAADTAVYYCAREDTAMVPYFDYWGQGTLVTVSS
VL: QSVLTQPPSVSGAPGQRVTISCTGSSSNIGAHYDVHWYQQVPGTAPKLLIYGNTYRPSGVPDRFSGSKSGTSASLAITGLQAEDEADYYCQSYDNSLSGVVFGGGTKLTVL
B5: 13B5: anti-PCSK9 antibody; light/heavy variable region SEQ ID NO 42/69 (antibody, listed as Homo sapiens, V domains shown)
VH: EVQLLESGGGLVQPGGSLRLSCAASGFTFSSYAMSWVRQAPGKGLEWVSTISGSGGRTYYADSVKGRFTISRDNSKNTLYLQMNSLRAEDTAVYYCAKEVGSPFDYWGQGTLVTVSS
VL: QSVLTQPPSVSAAPGQKVTISCSGSNSNIGNNYVSWYQQLPGTAPKLLIYDNNKRPSGIPDRFSGSNSGTSATLGITGLQTGDEADYYCGTWDSSLSAVVFGGGTKLTVL
B6: 16F12: anti-PCSK9 antibody; light/heavy variable region SEQ ID NO 35/79 (antibody, listed as Homo sapiens, V domains shown)
VH: QVHLVESGGGVVQPGRSLRLSCAASGFTFNSFGMHWVRQAPGKGLEWVALIWSDGSDEYYADSVKGRFTISRDNSKNTLYLQMNSLRAEDTAVYYCARAIAALYYYYGMDVWGQGTTVTVSS
VL: QSVLTQPPSVSAAPGQKVTISCSGSSSNIGNNFVSWYQQLPGTAPKLLIYDYNKRPSGIPDRFSGSKSGTSATLGITGLQTGDEADYYCGTWDSSLSAYVFGTGTRVTVL
B7: 21B12 IgG2: human 21B12 IgG2 antibody produced from transfected cells (antibody)
heavy: QVQLVQSGAEVKKPGASVKVSCKASGYTLTSYGISWVRQAPGQGLEWMGWVSFYNGNTNYAQKLQGRGTMTTDPSTSTAYMELRSLRSDDTAVYYCARGYGMDVWGQGTTVTVSSASTKGPSVFPLAPCSRSTSESTAALGCLVKDYFPEPVTVSWNSGALTSGVHTFPAVLQSSGLYSLSSVVTVPSSNFGTQTYTCNVDHKPSNTKVDKTVERKCCVECPPCPAPPVAGPSVFLFPPKPKDTLMISRTPEVTCVVVDVSHEDPEVQFNWYVDGVEVHNAKTKPREEQFNSTFRVVSVLTVVHQDWLNGKEYKCKVSNKGLPAPIEKTISKTKGQPREPQVYTLPPSREEMTKNQVSLTCLVKGFYPSDIAVEWESNGQPENNYKTTPPMLDSDGSFFLYSKLTVDKSRWQQGNVFSCSVMHEALHNHYTQKSLSLSPGK
light: QSALTQPASVSGSPGQSITISCTGTSSDVGGYNSVSWYQQHPGKAPKLMIYEVSNRPSGVSNRFSGSKSGNTASLTISGLQAEDEADYYCNSYTSTSMVFGGGTKLTVLQPKAAPSVTLFPPSSEELQANKATLVCLISDFYPGAVTVAWKADSSPVKAGVETTTPSKQSNNKYAASSYLSLTPEQWKSHRSYSCQVTHEGSTVEKTVAPTECS

Experiments:
[1] = biological target: D374Y PCSK9 binding to LDLR (Homo sapiens, UniProt Q8NBP7, D374Y); assay: Large scale receptor ligand blocking screen and functional classification of ABPs; settings: functional assays of the screening
Description: To screen for the antibodies that block PCSK9 binding to LDLR an assay was developed using the D374Y PCSK9 mutant. […] The following protocol was employed in the receptor ligand blocking screen: Costar 3702 medium binding 384 well plates (Corning Life Sciences) were employed in the screen. The plates were coated with goat anti-LDLR (R&D Cat #AF2148) at 2 μg/ml in 1×PBS/0.05% Azide at a volume of 40 μl/well. The plates were incubated at 4° C. overnight. The plates were then washed using a Titertek plate washer (Titertek, Huntsville, Ala.). A 3-cycle wash was performed. The plates were blocked with 90 μl of 1×PBS/1% milk and incubated approximately 30 minutes at room temperature. The plates were then washed using the Titertek plate washer. A 3-cycle wash was performed. The capture sample was LDLR (R&D, Cat #2148LD/CF), and was added at 0.4 μg/ml in 1×PBS/1% milk/10 mM Ca^2+ at a volume of 40 μl/well. The plates were then incubated for 1 hour and 10 minutes at room temperature. Contemporaneously, 20 ng/ml of biotinylated human D374Y PCSK9 was incubated with 15 micro liters of hybridoma exhaust supernatant in Nunc polypropylene plates and the exhaust supernatant concentration was diluted 1:5. The plates were then pre-incubated for about 1 hour and 30 minutes at room temperature. Next, the plates were washed using the Titertek plate washer operated using a 3-cycle wash. 50 μl/well of the pre-incubated mixture was transferred onto the LDLR coated ELISA plates and incubated for 1 hour at room temperature. To detect LDLR-bound b-PCSK9, 40 μl/well streptavidin HRP at 500 ng/ml in assay diluent was added to the plates. The plates were incubated for 1 hour at room temperature. The plates were again washed using a Titertek plate washer. A 3-cycle wash was performed. Finally, 40 μl/well of One-step TMB (Neogen, Lexington, Ky.) was added to the plate and was quenched with 40 μl/well of 1N hydrochloric acid after 30 minutes at room temperature. OD's were read immediately at 450 nm using a Titertek plate reader.
The receptor ligand assay was then repeated using the mutant enzyme on the 384 member subset of neutralizers identified in the first large scale receptor ligand inhibition assay. The same protocol was employed in the screen of the 384 member blocker subset assay as was done in the large scale receptor ligand blocking screen.
Limiting dilution was used to isolate a manageable number of clones from each line. […] The isolated clones were each expanded in 50-100 ml of hybridoma media and allowed to grow to exhaustion, (i.e., less than about 10% cell viability). The concentration and potency of the antibodies to PCSK9 in the supernatants of those cultures were determined by ELISA and by in vitro functional testing, as described herein.

[2] = test system: wild type (WT) mice (C57BL/6); assay: Serum cholesterol and HDL in 13 day study; type: in vivo, mouse; settings: 10 mg/kg, repeated 13 day study (FIG. 10C)
Text: Male WT mice (C57BL/6 strain, aged 9-10 weeks, 17-27 g) obtained from Jackson Laboratory (Bar Harbor, Me.) were fed a normal chow (Harland-Teklad, Diet 2918) through out the duration of the experiment. […] Naïve mice were also set aside as naïve control group.
Animals were sacrificed and livers were extracted and prepared as in Example 11.
The HDL levels for the animals in Example 13 were also examined.

D374Y PCSK9/LDLR binding = D374Y PCSK9/LDLR binding (Homo sapiens, UniProt Q8NBP7, D374Y); assay: Blocking D374Y PCSK9/LDLR binding (Example 9); settings: 20 ng/ml biotinylated D374Y PCSK9
Description: Clear 384 well plates (Costar) were coated with 2 micrograms/ml of goat anti-LDL receptor antibody (R&D Systems) diluted in buffer A (100 mM sodium cacodylate, pH 7.4). Plates were washed thoroughly with buffer A and then blocked for 2 hours with buffer B (1% milk in buffer A). After washing, plates were incubated for 1.5 hours with 0.4 micrograms/ml of LDL receptor (R&D Systems) diluted in buffer C (buffer B supplemented with 10 mM CaCl2). […] The LDL receptor containing plates were washed and the biotinylated D374Y PCSK9/antibody mixture was transferred to them and incubated for 1 hour at room temperature. Binding of the biotinylated D374Y to the LDL receptor was detected by incubation with streptavidin-HRP (Biosource) at 500 ng/ml in buffer C followed by TMB substrate (KPL). The signal was quenched with 1N HCl and the absorbance read at 450 nm.

[3] = biological target: D374Y human PCSK9 (HepG2 cells) (Homo sapiens, UniProt Q8NBP7, D374Y); assay: Cell LDL uptake assay (Example 10); type: cell-based; settings: 2 μg/ml D374Y human PCSK9, HepG2 cells
Description: Human HepG2 cells were seeded in black, clear bottom 96-well plates (Costar) at a concentration of 5×10^5 cells per well in DMEM medium (Mediatech, Inc) supplemented with 10% FBS and incubated at 37° C. (5% CO2) overnight. To form the PCSK9 and antibody complex, 2 μg/ml of D374Y human PCSK9 was incubated with various concentrations of antibody diluted in uptake buffer (DMEM with 1% FBS) or uptake buffer alone (control) for 1 hour at room temperature. After washing the cells with PBS, the D374Y PCSK9/antibody mixture was transferred to the cells, followed by LDL-BODIPY (Invitrogen) diluted in uptake buffer at a final concentration of 6 μg/ml. After incubation for 3 hours at 37° C. (5% CO2), cells were washed thoroughly with PBS and the cell fluorescence signal was detected by Safire™ (TECAN) at 480-520 nm (excitation) and 520-600 nm (emission).

Molecule | neutralizing ability (blocking PCSK9/LDLR) [1] | further results
B1 | weak neutralizers | –
B2 | neutralizing | –
B3 | non-neutralizing | –
B4 | non-neutralizing | –
B5 | non-neutralizing | –
B6 | – | total serum cholesterol after a single dose [2]: significant and substantial decreases in total serum cholesterol
B7 | – | IC50 (D374Y PCSK9/LDLR binding): 0.17 nM; IC50 [3]: 13.3 nM
